From patent publication US20140087995A1 (published 2014) come the findings set out here.

Numbered stars: 1 amine (or outer) side, 2 acyl side, 3 side chain; on linkers, the order of the positions; unused ones are H or OH. Bridge positions count the residues as written; N and C are the ends. Side chains are listed from the residue outwards. Ends that are not written are not given here. * marks the point of attachment. C20 diacid = O=C(O)CCCCCCCCCCCCCCCCCCC(=O)*; γGlu = O=C(O)[C@H](CCC(=O)[*:2])N[*:1]

The target of assay [1] is T1, human calcitonin receptor (human, UniProt P30988 25-474).
T1 construct: whole, on cells; Assayed as cell membranes of BHK tk'ts 13 cells stably transfected with the human calcitonin receptor (Assay VII); also called hCTR; hCT
T1 sequence (looked up): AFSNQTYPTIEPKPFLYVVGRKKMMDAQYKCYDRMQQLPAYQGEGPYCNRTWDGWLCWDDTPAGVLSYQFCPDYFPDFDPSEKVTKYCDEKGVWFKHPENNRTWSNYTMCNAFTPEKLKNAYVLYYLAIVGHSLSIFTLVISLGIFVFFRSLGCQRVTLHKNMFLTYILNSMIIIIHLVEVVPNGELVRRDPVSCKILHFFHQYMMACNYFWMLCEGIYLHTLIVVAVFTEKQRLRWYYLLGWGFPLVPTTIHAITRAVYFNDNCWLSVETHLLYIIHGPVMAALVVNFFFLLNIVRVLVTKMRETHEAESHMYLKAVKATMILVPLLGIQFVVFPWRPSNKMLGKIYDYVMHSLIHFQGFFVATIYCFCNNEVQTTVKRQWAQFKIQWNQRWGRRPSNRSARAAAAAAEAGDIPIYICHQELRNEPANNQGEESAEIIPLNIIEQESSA
Description: IC50 at hCTR divided by IC50 at hAmylin-R (SPA competition assays V and VII). The procedure, abridged:
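IC₅₀ values were derived by one-site competition analysis of SPA counts. Cell membranes (35 ng/μL) with SPA beads were incubated with test compounds for 120 min at 25° C in Hepes buffer, pH 7.4, containing CaCl2, MgCl₂, OA and Tween20.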

Assay [2] addresses T1, human calcitonin receptor. Description: SPA competition vs 125I-calcitonin, membranes of BHK cells with human calcitonin receptor (Assay VII). The gist of the method:
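BHK hCTR membranes 35 ng/μL + SPA beads 0.05 mg/well; buffer 50 mM Hepes pH 7.4, 1 mM CaCl2, 5 mM MgCl₂, 0.1% OA, 0.02% Tween20. 120 min, 25° C., shaking. Scintillation count; IC50 by one-site binding competition.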

The term IC50 denotes the concentration that gives 50% inhibition.

B1: N^ε1-[(4S)-4-carboxy-4-(19-carboxynonadecanoylamino)butanoyl]-[Ala14,Arg17,Pro21,Pro27,Pro34]-h-amylin (peptide)
peptide: K([γGlu-C20 diacid])CNTATCATQRLAAFLRHSSPNFGAIPSSTNVGPNTY-NH2
modifications: disulfide 2-7; N-terminus assumed
SMILES: CC[C@H](C)[C@H](NC(=O)[C@H](C)NC(=O)CNC(=O)[C@H](Cc1ccccc1)NC(=O)[C@H](CC(N)=O)NC(=O)[C@@H]1CCCN1C(=O)[C@H](CO)NC(=O)[C@H](CO)NC(=O)[C@H](Cc1c[nH]cn1)NC(=O)[C@H](CCCNC(=N)N)NC(=O)[C@H](CC(C)C)NC(=O)[C@H](Cc1ccccc1)NC(=O)[C@H](C)NC(=O)[C@H](C)NC(=O)[C@H](CC(C)C)NC(=O)[C@H](CCCNC(=N)N)NC(=O)[C@H](CCC(N)=O)NC(=O)[C@@H](NC(=O)[C@H](C)NC(=O)[C@@H]1CSSC[C@H](NC(=O)[C@@H](N)CCCCNC(=O)CC[C@H](NC(=O)CCCCCCCCCCCCCCCCCCC(=O)O)C(=O)O)C(=O)N[C@@H](CC(N)=O)C(=O)N[C@@H]([C@@H](C)O)C(=O)N[C@@H](C)C(=O)N[C@@H]([C@@H](C)O)C(=O)N1)[C@@H](C)O)C(=O)N1CCC[C@H]1C(=O)N[C@@H](CO)C(=O)N[C@@H](CO)C(=O)N[C@H](C(=O)N[C@@H](CC(N)=O)C(=O)N[C@H](C(=O)NCC(=O)N1CCC[C@H]1C(=O)N[C@@H](CC(N)=O)C(=O)N[C@H](C(=O)N[C@@H](Cc1ccc(O)cc1)C(N)=O)[C@@H](C)O)C(C)C)[C@@H](C)O
notes: also called compound 94
Consider B1, for which, in assay [1], the “Ratio hCT/hAmylin binding” value was determined as 46.3. Moreover, in assay [2], the IC50 is 6.86 nM.

B2: N^ε1-[(4S)-4-carboxy-4-(19-carboxynonadecanoylamino)butanoyl]-[Arg17,Pro21,Pro27,His34]-h-amylin (peptide)
peptide: K([γGlu-C20 diacid])CNTATCATQRLANFLRHSSPNFGAIPSSTNVGHNTY-NH2
modifications: disulfide 2-7; N-terminus assumed
SMILES: CC[C@H](C)[C@H](NC(=O)[C@H](C)NC(=O)CNC(=O)[C@H](Cc1ccccc1)NC(=O)[C@H](CC(N)=O)NC(=O)[C@@H]1CCCN1C(=O)[C@H](CO)NC(=O)[C@H](CO)NC(=O)[C@H](Cc1c[nH]cn1)NC(=O)[C@H](CCCNC(=N)N)NC(=O)[C@H](CC(C)C)NC(=O)[C@H](Cc1ccccc1)NC(=O)[C@H](CC(N)=O)NC(=O)[C@H](C)NC(=O)[C@H](CC(C)C)NC(=O)[C@H](CCCNC(=N)N)NC(=O)[C@H](CCC(N)=O)NC(=O)[C@@H](NC(=O)[C@H](C)NC(=O)[C@@H]1CSSC[C@H](NC(=O)[C@@H](N)CCCCNC(=O)CC[C@H](NC(=O)CCCCCCCCCCCCCCCCCCC(=O)O)C(=O)O)C(=O)N[C@@H](CC(N)=O)C(=O)N[C@@H]([C@@H](C)O)C(=O)N[C@@H](C)C(=O)N[C@@H]([C@@H](C)O)C(=O)N1)[C@@H](C)O)C(=O)N1CCC[C@H]1C(=O)N[C@@H](CO)C(=O)N[C@@H](CO)C(=O)N[C@H](C(=O)N[C@@H](CC(N)=O)C(=O)N[C@H](C(=O)NCC(=O)N[C@@H](Cc1c[nH]cn1)C(=O)N[C@@H](CC(N)=O)C(=O)N[C@H](C(=O)N[C@@H](Cc1ccc(O)cc1)C(N)=O)[C@@H](C)O)C(C)C)[C@@H](C)O
notes: also called compound 77
For B2, in assay [1], the “Ratio hCT/hAmylin binding” value was 118. Also, the IC50 in assay [2] amounted to 50.7 nM.

B3: N^ε1-[(4S)-4-carboxy-4-(19-carboxynonadecanoylamino)butanoyl]-[Arg17,Pro21,Pro27,Arg34]-h-amylin (peptide)
peptide: K([γGlu-C20 diacid])CNTATCATQRLANFLRHSSPNFGAIPSSTNVGRNTY-NH2
modifications: disulfide 2-7; N-terminus assumed
SMILES: CC[C@H](C)[C@H](NC(=O)[C@H](C)NC(=O)CNC(=O)[C@H](Cc1ccccc1)NC(=O)[C@H](CC(N)=O)NC(=O)[C@@H]1CCCN1C(=O)[C@H](CO)NC(=O)[C@H](CO)NC(=O)[C@H](Cc1c[nH]cn1)NC(=O)[C@H](CCCNC(=N)N)NC(=O)[C@H](CC(C)C)NC(=O)[C@H](Cc1ccccc1)NC(=O)[C@H](CC(N)=O)NC(=O)[C@H](C)NC(=O)[C@H](CC(C)C)NC(=O)[C@H](CCCNC(=N)N)NC(=O)[C@H](CCC(N)=O)NC(=O)[C@@H](NC(=O)[C@H](C)NC(=O)[C@@H]1CSSC[C@H](NC(=O)[C@@H](N)CCCCNC(=O)CC[C@H](NC(=O)CCCCCCCCCCCCCCCCCCC(=O)O)C(=O)O)C(=O)N[C@@H](CC(N)=O)C(=O)N[C@@H]([C@@H](C)O)C(=O)N[C@@H](C)C(=O)N[C@@H]([C@@H](C)O)C(=O)N1)[C@@H](C)O)C(=O)N1CCC[C@H]1C(=O)N[C@@H](CO)C(=O)N[C@@H](CO)C(=O)N[C@H](C(=O)N[C@@H](CC(N)=O)C(=O)N[C@H](C(=O)NCC(=O)N[C@@H](CCCNC(=N)N)C(=O)N[C@@H](CC(N)=O)C(=O)N[C@H](C(=O)N[C@@H](Cc1ccc(O)cc1)C(N)=O)[C@@H](C)O)C(C)C)[C@@H](C)O
notes: also called compound 79
As for B3, in assay [1], the “Ratio hCT/hAmylin binding” value amounted to 46.1. The concentration for half-maximal inhibition (IC50) in assay [2] turned out to be 36.4 nM.

B4: N^ε1-[(4S)-4-carboxy-4-(19-carboxynonadecanoylamino)butanoyl]-[Arg14,Arg17,Pro21,Pro27]-h-amylin (peptide)
peptide: K([γGlu-C20 diacid])CNTATCATQRLARFLRHSSPNFGAIPSSTNVGSNTY-NH2
modifications: disulfide 2-7; N-terminus assumed
SMILES: CC[C@H](C)[C@H](NC(=O)[C@H](C)NC(=O)CNC(=O)[C@H](Cc1ccccc1)NC(=O)[C@H](CC(N)=O)NC(=O)[C@@H]1CCCN1C(=O)[C@H](CO)NC(=O)[C@H](CO)NC(=O)[C@H](Cc1c[nH]cn1)NC(=O)[C@H](CCCNC(=N)N)NC(=O)[C@H](CC(C)C)NC(=O)[C@H](Cc1ccccc1)NC(=O)[C@H](CCCNC(=N)N)NC(=O)[C@H](C)NC(=O)[C@H](CC(C)C)NC(=O)[C@H](CCCNC(=N)N)NC(=O)[C@H](CCC(N)=O)NC(=O)[C@@H](NC(=O)[C@H](C)NC(=O)[C@@H]1CSSC[C@H](NC(=O)[C@@H](N)CCCCNC(=O)CC[C@H](NC(=O)CCCCCCCCCCCCCCCCCCC(=O)O)C(=O)O)C(=O)N[C@@H](CC(N)=O)C(=O)N[C@@H]([C@@H](C)O)C(=O)N[C@@H](C)C(=O)N[C@@H]([C@@H](C)O)C(=O)N1)[C@@H](C)O)C(=O)N1CCC[C@H]1C(=O)N[C@@H](CO)C(=O)N[C@@H](CO)C(=O)N[C@H](C(=O)N[C@@H](CC(N)=O)C(=O)N[C@H](C(=O)NCC(=O)N[C@@H](CO)C(=O)N[C@@H](CC(N)=O)C(=O)N[C@H](C(=O)N[C@@H](Cc1ccc(O)cc1)C(N)=O)[C@@H](C)O)C(C)C)[C@@H](C)O
notes: also called compound 83
As to B4, the “Ratio hCT/hAmylin binding” value in assay [1] was found to be 146. For the same molecule, the IC50 in assay [2] came to 137 nM.

B5: N^ε1-[(4S)-4-carboxy-4-(19-carboxynonadecanoylamino)butanoyl]-[Arg14,Arg17,Pro21,Pro27,Pro31]-h-amylin (peptide)
peptide: K([γGlu-C20 diacid])CNTATCATQRLARFLRHSSPNFGAIPSSTPVGSNTY-NH2
modifications: disulfide 2-7; N-terminus assumed
SMILES: CC[C@H](C)[C@H](NC(=O)[C@H](C)NC(=O)CNC(=O)[C@H](Cc1ccccc1)NC(=O)[C@H](CC(N)=O)NC(=O)[C@@H]1CCCN1C(=O)[C@H](CO)NC(=O)[C@H](CO)NC(=O)[C@H](Cc1c[nH]cn1)NC(=O)[C@H](CCCNC(=N)N)NC(=O)[C@H](CC(C)C)NC(=O)[C@H](Cc1ccccc1)NC(=O)[C@H](CCCNC(=N)N)NC(=O)[C@H](C)NC(=O)[C@H](CC(C)C)NC(=O)[C@H](CCCNC(=N)N)NC(=O)[C@H](CCC(N)=O)NC(=O)[C@@H](NC(=O)[C@H](C)NC(=O)[C@@H]1CSSC[C@H](NC(=O)[C@@H](N)CCCCNC(=O)CC[C@H](NC(=O)CCCCCCCCCCCCCCCCCCC(=O)O)C(=O)O)C(=O)N[C@@H](CC(N)=O)C(=O)N[C@@H]([C@@H](C)O)C(=O)N[C@@H](C)C(=O)N[C@@H]([C@@H](C)O)C(=O)N1)[C@@H](C)O)C(=O)N1CCC[C@H]1C(=O)N[C@@H](CO)C(=O)N[C@@H](CO)C(=O)N[C@H](C(=O)N1CCC[C@H]1C(=O)N[C@H](C(=O)NCC(=O)N[C@@H](CO)C(=O)N[C@@H](CC(N)=O)C(=O)N[C@H](C(=O)N[C@@H](Cc1ccc(O)cc1)C(N)=O)[C@@H](C)O)C(C)C)[C@@H](C)O
notes: also called compound 63
On to B5, for which, in assay [1], the “Ratio hCT/hAmylin binding” value was 157. The IC50 in assay [2] was 130 nM.

B6: N^ε1-[(4S)-4-carboxy-4-(19-carboxynonadecanoylamino)butanoyl]-[Arg14,Arg17,Pro21,Pro27,Pro34]-h-amylin (peptide)
peptide: K([γGlu-C20 diacid])CNTATCATQRLARFLRHSSPNFGAIPSSTNVGPNTY-NH2
modifications: disulfide 2-7; N-terminus assumed
SMILES: CC[C@H](C)[C@H](NC(=O)[C@H](C)NC(=O)CNC(=O)[C@H](Cc1ccccc1)NC(=O)[C@H](CC(N)=O)NC(=O)[C@@H]1CCCN1C(=O)[C@H](CO)NC(=O)[C@H](CO)NC(=O)[C@H](Cc1c[nH]cn1)NC(=O)[C@H](CCCNC(=N)N)NC(=O)[C@H](CC(C)C)NC(=O)[C@H](Cc1ccccc1)NC(=O)[C@H](CCCNC(=N)N)NC(=O)[C@H](C)NC(=O)[C@H](CC(C)C)NC(=O)[C@H](CCCNC(=N)N)NC(=O)[C@H](CCC(N)=O)NC(=O)[C@@H](NC(=O)[C@H](C)NC(=O)[C@@H]1CSSC[C@H](NC(=O)[C@@H](N)CCCCNC(=O)CC[C@H](NC(=O)CCCCCCCCCCCCCCCCCCC(=O)O)C(=O)O)C(=O)N[C@@H](CC(N)=O)C(=O)N[C@@H]([C@@H](C)O)C(=O)N[C@@H](C)C(=O)N[C@@H]([C@@H](C)O)C(=O)N1)[C@@H](C)O)C(=O)N1CCC[C@H]1C(=O)N[C@@H](CO)C(=O)N[C@@H](CO)C(=O)N[C@H](C(=O)N[C@@H](CC(N)=O)C(=O)N[C@H](C(=O)NCC(=O)N1CCC[C@H]1C(=O)N[C@@H](CC(N)=O)C(=O)N[C@H](C(=O)N[C@@H](Cc1ccc(O)cc1)C(N)=O)[C@@H](C)O)C(C)C)[C@@H](C)O
notes: also called compound 65
In the case of B6, the “Ratio hCT/hAmylin binding” value in assay [1] worked out at 82.4. The IC50 in assay [2] worked out at 53.5 nM.
